Measurements as given in patent US20100136664A1, “CARBOXIN […] FOR FLAMMULINA VELUTIPES” (MYCOMAGIC BIOTECHNOLOGY CO., LTD., priority 2008, published 2010).

Tested on: Flammulina velutipes
Test: Test for the function of Cbr sequence: growth of transformed strains on PDA plate medium containing carboxin
Type: cell-based
Settings: ten transformed Flammulina velutipes strains (electroporation, pMush-A-mFvCbr) cultured in PDA plate medium containing 2 mg/ml carboxin for one week
Description: The vector for expressing mutant Cbr sequence is pMush-A vector containing GPD promoter (pGPD) and hygromycin resistance (hyg) marker. The mutant Cbr sequence preserved in mFvCbrAMV vector (FIG. 1B) and pMush-A vector were sliced with BamH I and Spe I, respectively. The mutant Cbr sequence (mFvCbr) was ligated to the corresponding sites in pMush-A vector using T4 DNA ligase. The constructed vector is called pMush-A-mFvCbr (FIG. 2B).
The mycelia of Flammulina velutipes were cultured in PDB medium at 25° C. for 1-2 weeks. The resulting mycelia were disrupted by a homogenizator and then treated with lysing enzyme solution containing lysing enzyme (Sigma, St. Louis, Mo., U.S.A.), mannitol and potassium phosphate buffer. The resulting mycelial fragments were dissolved in 100 μl electroporation buffer solution as the competent cells used in the electroporation. The well-prepared competent cells were added to the mutant Cbr DNA solution obtained from Example 2 and then placed on ice for 10 minutes. An electroporation was conducted for the resulting solution using Electro Cell Manipulator ECM 630 Electroporation System (BTX, San Diego, Calif., U.S.A.) to obtain transformed mycelia. […] Ten transformed strains were selected and cultured in PDA plate medium containing 2 mg/ml carboxin for one week. […]

B1: mutant Cbr DNA: Flammulina velutipes succinate dehydrogenase iron-sulfur protein gene with point mutation His238 to Leu (CAC→CTC), SEQ ID NO: 1 (nucleic acid)
DNA: ATGCAGTCCGTCGCCCGTCGTTTCTCTGCCGCCGCCGTGCGCCGTAGCTTTTCTACCACTTCTGTCGCGTTCCAGGCTACACCGCTCGAGAAGCCCGTGCTGAACAAGGAATTCAAGATTTACCGCTGGAATCCTGATGAGCCGGAGAAGAAACCGACGCTACAGAGCTACATAATCGACCTGAACCAGACAGGGCCAATGATTCTGGATGCTCTCATCAAGATTAAAAACGAAATCGACCCTACGCTTACCTTCAGACGAAGTTGTCGCGAGGGCATTTGCGGATCTTGTGCGAGAAAAATCGACGGGCAGAACACGTTGGCCTGTCTCTGCAGGATTGATAGGAATGCTGGGAAGGATTCGAAGATCTATCCCTTACCACACAGTGAGTGTCTCATCTGAGCTCTGCGTATCTGAGTGCTAACTTAGATTCCAGTGTACATCGTCAAGGACCTCGTACCGGATCTCACCTACTTCTACAAGCAGTACAAGTCTATCCAACCATACCTTCAGAACGACAACCCACCTGCGTCAGGTCTGTTCATTATTTTGCACCCTCCCCTTTGCTCGGCTTACCGAATCGCTTCTAGGTGAATTCCTCCAAACGCAAGATGACCGCAAGAAGCTCGACGGACTCTACGAGTGTATCCTTTGCGCGTGTTGTTCGACGTCTTGCCCTTCGTATTGGTGGAACCAAGACGAATACCTTGGACCCGCTACTTTGATGCAAGCATATCGCTGGATCGCCGACTCGAGAGTACGTTCTGCTCGTCGTATCATGTTTTATCTCATACTGATATACTCTTAGGACTCTTATGCCGCAGAACGCAAGGAAAAGCTCCAAAACGAGATGAGCATGTACCGATGCCTCACTATCTTCAACTGCTCGCGGACATGCCCCAAGGGTCTCAACCCCGCTGCCGCCATCGCGAAAATCAAGCTTGAGCTTGCGGCCGAGTAA
modifications: Flammulina velutipes
growth of transformed strains in PDA plate medium containing carboxin (carboxin resistance): Four strains grew
